Source: the DeepSol protein solubility set

Assay: soluble on expression in E. coli; label from the status in PepcDB or PDB records

PDIHHPSDFSIQKLSKDEDNYVAWKIRFRSFLRVTKKFGFIDGTLPKPDPFSPLYQPWEQCNAMVMYWLMNSMTDKLLESVMYAETAHKMWEDLRRVFVPCVDLKIYQLRRRLATLRQGGDSVEEYFGKLSKVWMELSEYAPIPECKCGGCNCECTKRAEEAREKEQRYEFLMGLKLNQGFEAVTTKIMFQKPPPSLHEAFAMVKDAESMMKWYSR
soluble on expression in E. coli: not soluble

IDFHRGTQGEGRVEVELSQPGAVINVHSHGSRLLVEFMKAYLPPNLERRLNVLDFATPVQSVETVARDGNVQMIIEPKGRWEHTSWQTGTSFVVEIRPMAEAED
soluble on expression in E. coli: not soluble

MGSDKIHHHHHHMSLALQYFKALSDETRLRLIHVLNRHELSVNELVSILEMGQSRVSRHLKILTGAGLLTSRRDGLWVFYSAAAEGDGRAFLDAVTPFVTTDMVLQADLDMAQKIIEERALKTRQFFNAIAEDWDELNREVLGGFDLAGAVAEAMPQCETAVDLGCGTGSVIERMLQRSQQVIGVDGSPRMLELARRRFVEGAERVSLRIGELDHLPLRDGEADFASINMVLHHLSDPGVALGEIRRVLRLGGQLMVTDFDRHDNERMRSDYGDRWLGFEGVQLEGLLREAGFTVRECRRQGVAKGLALHLMLAEKTQQ
soluble on expression in E. coli: not soluble

MGSSHHHHHHGGTGENLYFQGGSGGTCPSISQSEVGIVETCGRFSYTADPGIHCLWCGSVLVRRVTLRLQEYELKVESKTKDNVFVTLSLVIQYQVSPDKLAEVYYACDSSLQCMRDYVLNSIRAKIPLYKLEALYVERGTISQQLKDEVDAIIGTYGIEIVSALISDIDPGAEITKAMNEVQKFQRLRVASVDAAETEKLKRVRAAEARCEARRLSGEGLAEQRKAIVAGLMHSIEDVQSEVRDLTSNDATNMLLMNQYYDTLQAIAANSSSSVIMLESNGGLEKVAAQLRQGVTHMMR
soluble on expression in E. coli: not soluble

LTPIVGPSNFRVQVAADMDFSQVEETREILDNAPVVRNEHTIQNNSIDQIALGVPGSLSNQPPVTGEAATNDSQNTNARSEVNRQYAVGSSVRRTQYQQGQIEKLSVSVLLNSKASPDGVAWSDADKAQISTMITDAVGISAARGDSLSLMSFNF
soluble on expression in E. coli: not soluble

MGSDKIHHHHHHAAENLPIQNELFSEYFKKLNPTNYNTKMNRELYIFFKQMFNIDIVKDNIDNANFPTFEEVLGLLDLAEQRKEAFRNFGLENLNNRSDSIRFLRQYLILLMAEAIHNTPRTDNKYHKLLVENLLENDLLLDTTFISANYDIHIDNTVTGLRDKNDLPIMLDYGVEFTNFKEELNWRKPKEPLIKLYKIHGSLNWLYCPICNSVTLTPHEGGVMKLIENSSETKCLECGELTEPIIVPPTYFKNMSNIFLSNVWNETEKTLRDTDLLIFCGYSFPEADMHIKYMLKRVQTNRKKPPLKIMVFNNHSQKQRITLKKEEGRYKRFLGEDVIFTDNSFQDFSVNPLRFIKNI
soluble on expression in E. coli: not soluble

HSSGLVPRGSHMSQERILDGEEDEINHKIFDLKRTLKDNLPLDRDFIDRLKRYFKDPSDQVLALRELLNEKDLTAEQVELLTKIINEIISGSEKSVNAGINSAIQAKLFGNKMKLEPQLLRACYRGFIMGNISTTDQYIEWLGNFGFNHRHTIVNFVEQSLIVDMDSEKPSCNAYEFGFVLSKLIAIKMIRTSDVIFMKKLESSSLLKDGSLSAEQLLLTLLYIFQYPSESEQILTSVIEVSRASHEDSVVYQTYLSSVNESPHDIFKSESEREIAINILRELVTSAYKKELSR
soluble on expression in E. coli: soluble

MSLFQVPDSEGGRAGSRAMKPPGGESSNLFGSPEEATPSSRPNRMASNIFGPTEEPQNIPKRTNPPGGKGSGIFDESTPVQTRQHLNPPGGKTSDIFGSPVTATSRLAHPNKPKDHVFLCEGEEPKSDLKAARSIPAGAEPGEKGSARKAGPAKEQEPMPTVDSHEPRLGPRPRSHNKVLNPPGGKSSISFYEGHHHHHH
soluble on expression in E. coli: soluble

MRGSHHHHHHGSMQYALLFPGQGSQCIGMGKSFYEGHTLAKELFERASNALKVDMKKTLFEENELLKESAYTQPAIYLVSYIAYQLLNKQANGGLKPVFALGHSLGEVSAVSLSGALDFEKALKLTHQRGKMMQEACANKDASMMVVLGVSEESLLSLCQRTKNVWCANFNGGMQVVLAGVKDDLKALEPTLKEMGAKRVVFLEMSVASHCPFLEPMIFKFQELLEKSLKDKFHFEIISNATNEAYHNKAKAVELLSLQLTQPVRYQDCVKSNNDRVDIFFELGCGSVLKGLNKRLSNKPTISVGDNKGLDEAIEFLEEYV
soluble on expression in E. coli: soluble

GSVAVEDQPDVSAVLSAYNQQGDPTMYEEYYSGLKHFIECSLDCHRAELSQLFYPLFVHMYLELVYNQHENEAKSFFEKFHGDQECYYQDDLRVLSSLTKKEHMKGNETMLDFRTSKFVLRISRDSYQLLKRHLQEKQNNQIWNIVQEHLYIDIFD
soluble on expression in E. coli: soluble
